Experimental data as given in patent US20120208867, “HMGB1 BINDING NUCLEIC ACID MOLECULE AND APPLICATIONS THEREOF” (published 2012).

How the values were obtained:
Details in all cases: tags: N-terminal His-tag
[1] = target: T1, His-tagged HMGB1 (UniProt P09429 P09429:1-215); experiment: SPR; 160 nM protein
Protocol: (§1) First, a sensor chip (trade name: Sensor Chip SA, manufactured by GE Heathcare) specially made for a BIACORE was set on the aforementioned BLACORE (registered trademark) X. Biotinylate deoxythymidine (5 μmol/L) was injected into the flow cell 2 of the aforementioned sensor chip using a running buffer and subjected to binding until the signal intensity (RU: resonance unit) reached about 1000 RU. For the aforementioned biotinylated deoxythymidine, 20-base-long deoxythymidine in which the 5′ end was biotinylated was used. Then, 10 μg/mL of an RNA aptamer was injected at a flow rate of 20 μL/min for 1 min into the aforementioned flow cells 1 and 2 of the aforementioned chip using a running buffer and subjected to binding until the signal intensity reached about 1000 RU. Next, 675 nmol/L of the aforementioned His-tag-added HMGB1 was injected at a flow rate of 20 μL/min for 30 sec using the aforementioned running buffer, and under the same conditions the aforementioned running buffer was allowed to flow continuously for washing. Simultaneously with the injection of the aforementioned His-tag-added HMGB1 and washing with the aforementioned running buffer, signal intensity was measured. The aforementioned running buffer was composed of 20 mmol/L of HEPES, 500 mmol/L of NaCl, 0.1 mmol/L of MgCl₂, and 0.1% Triton X-100 (registered trademark), with the pH thereof being 7.2. As a blocking agent for suppressing nonspecific binding, tRNA was used in a concentration of 1 mg/mL. In a comparative example, signal intensity was measured in the same manner except that the aforementioned comparative example RNA was used in place of the aforementioned example RNA aptamers.
An analysis of ability to bind to His-tag added HMGB1 was carried out in the same manner as in (2) above of the aforementioned Example 1 except that the aforementioned RNA aptamers were used, and the concentration of the aforementioned His-tag-added HMGB1 was 160 nmol/L. Also, an analysis was carried on the aforementioned 40N as a comparative example in the same manner. FIGS. 12 and 13 show the results.

[2] = target: T1, His-tagged HMGB1; experiment: SPR; 150 nM protein; excellent binding
Protocol: (§2) The ability of each of the aforementioned RNA aptamers to bind to HMGB1 in which His-tag was added to the N-terminus (His-tag-added HMGB1) was examined. For the analysis of the aforementioned binding ability, a BIACORE (registered trademark) X (manufactured by GE Healthcare) was used according to its instruction manual.
as §1, with “675 nmol/L of the aforementioned His-tag-added HMGB1 was injected at a flow rate” left out

[3] = target: T1, His-tagged HMGB1; experiment: SPR; superior to R8c6_1; 160 nM protein
Protocol: as §1, with “675 nmol/L of the aforementioned His-tag-added HMGB1 was injected at a flow rate” left out, “The aforementioned running buffer was composed of 20 mmol/L of HEPES, 500 mmol/L of NaCl, 0.1 mmol/L of MgCl₂, and 0.1% Triton X-100 (registered trademark), with the pH thereof being 7.2. As a blocking agent for suppressing nonspecific binding, tRNA was used in a concentration of 1 mg/mL.” left out, “aptamers. […]” for “aptamers.”

[4] = target: T1, His-tagged HMGB1; experiment: SPR; 200 nM protein; comparable to unmodified R8c6_1 at 150 mM NaCl
[5] = target: T1, His-tagged HMGB1; experiment: SPR; 200 nM protein, 150 mM NaCl; excellent binding
Protocol: as §1, with “675 nmol/L of the aforementioned His-tag-added HMGB1 was injected at a flow rate” left out, “The aforementioned running buffer was composed of 20 mmol/L of HEPES, 500 mmol/L of NaCl, 0.1 mmol/L of MgCl₂, and 0.1% Triton X-100 (registered trademark), with the pH thereof being 7.2. As a blocking agent for suppressing nonspecific binding, tRNA was used in a concentration of 1 mg/mL.” left out, “aptamers. […]” for “aptamers.”

[6] = target: T1, His-tagged HMGB1; experiment: SPR; 150 nM protein; listed in Table 7
Protocol: as §2
First, a sensor chip (trade name: Sensor Chip SA, manufactured by GE Heathcare) specially made for a BIACORE was set on the aforementioned BLACORE (registered trademark) X. Biotinylate deoxythymidine (5 μmol/L) was injected into the flow cell 2 of the aforementioned sensor chip using a running buffer and subjected to binding until the signal intensity (RU: resonance unit) reached about 1000 RU. For the aforementioned biotinylated deoxythymidine, 20-base-long deoxythymidine in which the 5′ end was biotinylated was used. […] Simultaneously with the injection of the aforementioned His-tag-added HMGB1 and washing with the aforementioned running buffer, signal intensity was measured. […] In a comparative example, signal intensity was measured in the same manner except that the aforementioned comparative example RNA was used in place of the aforementioned example RNA aptamers.

[7] = target: T1, His-tagged HMGB1; experiment: SPR; 635 nM protein, 500 mM NaCl
Protocol: as §1
An analysis of ability to bind to His-tag-added HMGB1 was carried out in the same manner as in (2) above of the aforementioned Example 1 except that the aforementioned RNA aptamers were used, the concentration of the aforementioned His-tag-added HMGB1 was 635 nmol/L, and the injection time of the aforementioned His-tag-added HMGB1 was 60 seconds. […]

[8] = target: T1, His-tagged HMGB1; experiment: SPR; comparable to unmodified R8c6_1 at 500 and 150 mM NaCl
[9] = target: T1, His-tagged HMGB1; experiment: SPR; 200 nM protein, 500 mM NaCl
Protocol: as §1
An analysis of ability to bind to His-tag-added HMGB1 was carried out in the same manner as in (2) above of the aforementioned Example 1 except that the aforementioned fluorinated RNA aptamers were used, the concentration of His-tag-added HMGB1 was 200 nmol/L, and the injection time of the aforementioned His-tag-added HMGB1 was 60 seconds. Also, an analysis was carried out in the same manner on the aforementioned 2′F-40N and unmodified R8c6_{—}1 that was not fluorinated.

T1 sequence (P09429 whole entry, one chain of several): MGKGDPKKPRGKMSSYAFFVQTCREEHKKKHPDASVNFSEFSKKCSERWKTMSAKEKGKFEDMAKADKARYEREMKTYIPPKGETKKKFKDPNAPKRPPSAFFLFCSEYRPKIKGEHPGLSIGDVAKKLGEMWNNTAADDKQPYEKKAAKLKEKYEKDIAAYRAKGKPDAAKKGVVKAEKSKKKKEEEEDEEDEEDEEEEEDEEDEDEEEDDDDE

B1: R8c6_1-18-S4 (ssRNA)
RNA: GGGAGUACAGUAAGACACGUAGCACCAGUCGUUUGUCGUGCCUGGACGUGCAGU
binding result [1]: binds

B2: 2'F-R8c6_1-21-S8 (ssRNA)
RNA: GGGACAGUAAGACACGUAGCACCAGUGCCUGGACGUGCAGU
modifications: 2'-F on all C and U
binding result [2]: binds

B3: R8c6_1-30 (ssRNA)
RNA: GGGCACGUAGCACCAGUCUGACGUUUGUCGUCAGUGCCUGGACGUGCAGU
binding result [1]: binds

B4: R8c6_1-18-S2 (ssRNA)
RNA: GGGAGUACAGUAAGACACGUAGCACCAGUCGCGUUUGUCGCGUGCCUGGACGUGCAGU
binding result [3]: binds

B5: 2'F-R8c6_1 (2'F-CU-R8c6_1) (ssRNA)
RNA: GGGACGCUCACGUACGCUCAGAGUACAGUAAGACACGUAGCACCAGUCUGACGUUUGUCGUCAGUGCCUGGACGUGCAGU
modifications: 2'-F on all C and U
binding result [4]: binds

B6: 2'F-U-R8c6_1 (ssRNA)
RNA: B5 RNA
modifications: 2'-F on all U
binding result [5]: binds

B7: 2'F-C-R8c6_1 (ssRNA)
RNA: B5 RNA
modifications: 2'-F on all C
binding result [5]: binds

B8: 2'F-R8c6_1-25-S6A3 (ssRNA)
RNA: GGGUAAGACACGUAGCACCAGUGUGCCUGGACGUGCGU
modifications: 2'-F on all C and U
binding result [6]: binds

B9: R8c6_1-25 (ssRNA)
RNA: GGGUAAGACACGUAGCACCAGUCUGACGUUUGUCGUCAGUGCCUGGACGUGCAGU
binding result [3]: binds

B10: 2'F-R8c6_1-25 (ssRNA)
RNA: B9 RNA
modifications: 2'-F on all C and U
binding result [2]: binds

B11: R8c6_1-3 (ssRNA)
RNA: GGGACGCUCACGUACGCUCAGAGUACAGUAAGACACGUAGCACCAGUCUGACGUUUGUCGUCAGUGCCUGGACGUGC
binding result [7]: binds

B12: R8c6_1-18-S6 (ssRNA)
RNA: GGGAGUACAGUAAGACACGUAGCACCAGUGUGCCUGGACGUGCAGU
binding result [1]: binds

B13: 2'F-R8c6_1-18-S6 (ssRNA)
RNA: B12 RNA
modifications: 2'-F on all C and U
binding result [2]: binds

B14: 2'F-R8c6_1-21-S6 (ssRNA)
RNA: GGGACAGUAAGACACGUAGCACCAGUGUGCCUGGACGUGCAGU
modifications: 2'-F on all C and U
binding result [2]: binds

B15: 2'F-R8c6_1-18 (ssRNA)
RNA: GGGAGUACAGUAAGACACGUAGCACCAGUCUGACGUUUGUCGUCAGUGCCUGGACGUGCAGU
modifications: 2'-F on all C and U
binding result [8]: binds

B16: 2'F-R8c6_1-21 (ssRNA)
RNA: GGGACAGUAAGACACGUAGCACCAGUCUGACGUUUGUCGUCAGUGCCUGGACGUGCAGU
modifications: 2'-F on all C and U
binding result [9]: binds

B17: 2'F-R8c6_1-15 (ssRNA)
RNA: GGGCAGAGUACAGUAAGACACGUAGCACCAGUCUGACGUUUGUCGUCAGUGCCUGGACGUGCAGU
modifications: 2'-F on all C and U
binding result [9]: binds

B18: R8c6_1-34CC (ssRNA)
RNA: GGGUAGCACCAGUCUGACGUUUGUCGUCAGUGCCUGGACGUGCACC
binding result [1]: binds

B19: R8c6_1-1 (ssRNA)
RNA: GGGACGCUCACGUACGCUCAGAGUACAGUAAGACACGUAGCACCAGUCUGACGUUUGUCGUCAGUGCCUGGACGUGCAG
binding result [7]: binds

B20: 2'F-R8c6_1-1 (ssRNA)
RNA: B19 RNA
modifications: 2'-F on all C and U
binding result [9]: binds

B21: R8c6_1-4 (ssRNA)
RNA: GGGACGCUCACGUACGCUCAGAGUACAGUAAGACACGUAGCACCAGUCUGACGUUUGUCGUCAGUGCCUGGACGUG
binding result [7]: binds

B22: 2'F-R8c6_1-4 (ssRNA)
RNA: B21 RNA
modifications: 2'-F on all C and U
binding result [9]: binds
